B1: I-309 (peptide)
peptide: Ac-[αAllylPro]DA[B5]DDAA[Phe(4-Cl)]V[S8]FWQ-NH2
modifications: staple 1-4, 4-11; not fully specified; printed as Ac-PL3-Asp-Ala-B5-Asp-Asp-Ala-Ala-4C1F-Val-S8-Phe-Trp-Gln-NH2
notes: Ac-PL3-Asp-Ala-B5-Asp-Asp-Ala-Ala-4C1F-Val-S8-Phe-Trp-Gln-NH2; stapled peptide composition
B2: I-325 (peptide)
peptide: Ac-[αAllylPro]DA[B5(4)]DDAA[2Thi]V[S8]FWQ-NH2
modifications: staple 1-4, 4-11
notes: Ac-PL3-Asp-Ala-B5-Asp-Asp-Ala-Ala-2Thi-Val-S8-Phe-Trp-Gln-NH2; stapled peptide composition
B3: I-317 (peptide)
peptide: Ac-[αAllylPro]DA[B5]DDAA[Phe(2-F)]V[S8]FWQ-NH2
modifications: staple 1-4, 4-11
notes: Ac-PL3-Asp-Ala-B5-Asp-Asp-Ala-Ala-2FF-Val-S8-Phe-Trp-Gln-NH2; stapled peptide composition

Starred links: 1 amine or outer side, 2 acyl side, 3 side chain; linkers in the order of their positions; H or OH if unused. Positions of bridges follow the written chain, without caps; N, C: chain ends. Non-standard residues stand in square brackets, D forms with d. Primed or numbered codes have the meaning given here. PyrS2″ = (S)-3-amino-1-((pent-4-en-1-yloxy)carbonyl)pyrrolidine-3-carboxylic acid (stapling residue), C=CCCCOC(=O)N1CC[C@@](N[*:1])(C(=O)[*:2])C1; (Me2NPr)GA = (S)-2-amino-3-(N-(carboxymethyl)-3-(dimethylamino)propanamido)propanoic acid, CN(C)CCC(=O)N(CC(=O)[*:3])C[C@H](N[*:1])C(=O)[*:2]; B5(4) = 2,2-bis(4-pentenyl)glycine = 2-amino-2-(pent-4-en-1-yl)hept-6-enoic acid (stitching residue), C=CCCCC(CCCC=C)(N[*:1])C(=O)[*:2]; PyrS2 = (S)-3-amino-1-((pent-4-en-1-yloxy)carbonyl)pyrrolidine-3-carboxylic acid, C=CCCCOC(=O)N1CC[C@@](N[*:1])(C(=O)[*:2])C1; B5(22) = 2-amino-2-(pent-4-en-1-yl)hept-6-enoic acid (two alkene side chains), C=CCCCC(CCCC=C)(N[*:1])C(=O)[*:2]; B5(3) = 2,2-bis(4-pentenyl)glycine (stitching residue), C=CCCCC(CCCC=C)(N[*:1])C(=O)[*:2]; B5 = 2-amino-2-(pent-4-en-1-yl)hept-6-enoic acid, C=CCCCC(CCCC=C)(N[*:1])C(=O)[*:2]; Me2Asn = listed as N4-methyl-L-asparagine, CNC(=O)C[C@H](N[*:1])C(=O)[*:2]; MeAsn = N4-methyl-L-asparagine, CNC(=O)C[C@H](N[*:1])C(=O)[*:2]; Phe(3-COOH) = N[C@@H](Cc1cccc(C(=O)O)c1)C(=O)O; 2F3MeF = Cc1cccc(C[C@H](N[*:1])C(=O)[*:2])c1F; Phe(2-CF3) = N[C@@H](Cc1ccccc1C(F)(F)F)C(=O)O; Phe(3-Cl) = N[C@@H](Cc1cccc(Cl)c1)C(=O)O; Phe(4-Cl) = N[C@@H](Cc1ccc(Cl)cc1)C(=O)O; Phe(2-F) = N[C@@H](Cc1ccccc1F)C(=O)O; Bta = N[C@@H](Cc1csc2ccccc12)C(=O)O; αAllylPro = C=CC[C@@]1(C(=O)O)CCCN1; tBuAla = CC(C)(C)C[C@H](N)C(=O)O; 2Thi = N[C@@H](Cc1cccs1)C(=O)O; 3Thi = N[C@@H](Cc1ccsc1)C(=O)O; S8 = C=CCCCCCC[C@](C)(N)C(=O)O; 4ClBztA = not defined here; Ac5c = NC1(C(=O)O)CCCC1; Ac3c = NC1(C(=O)O)CC1; Aib = CC(C)(N)C(=O)O

For one assay, the target named is T1, B-cat-Halo (UniProt P35222 1-781).
T1 sequence (looked up): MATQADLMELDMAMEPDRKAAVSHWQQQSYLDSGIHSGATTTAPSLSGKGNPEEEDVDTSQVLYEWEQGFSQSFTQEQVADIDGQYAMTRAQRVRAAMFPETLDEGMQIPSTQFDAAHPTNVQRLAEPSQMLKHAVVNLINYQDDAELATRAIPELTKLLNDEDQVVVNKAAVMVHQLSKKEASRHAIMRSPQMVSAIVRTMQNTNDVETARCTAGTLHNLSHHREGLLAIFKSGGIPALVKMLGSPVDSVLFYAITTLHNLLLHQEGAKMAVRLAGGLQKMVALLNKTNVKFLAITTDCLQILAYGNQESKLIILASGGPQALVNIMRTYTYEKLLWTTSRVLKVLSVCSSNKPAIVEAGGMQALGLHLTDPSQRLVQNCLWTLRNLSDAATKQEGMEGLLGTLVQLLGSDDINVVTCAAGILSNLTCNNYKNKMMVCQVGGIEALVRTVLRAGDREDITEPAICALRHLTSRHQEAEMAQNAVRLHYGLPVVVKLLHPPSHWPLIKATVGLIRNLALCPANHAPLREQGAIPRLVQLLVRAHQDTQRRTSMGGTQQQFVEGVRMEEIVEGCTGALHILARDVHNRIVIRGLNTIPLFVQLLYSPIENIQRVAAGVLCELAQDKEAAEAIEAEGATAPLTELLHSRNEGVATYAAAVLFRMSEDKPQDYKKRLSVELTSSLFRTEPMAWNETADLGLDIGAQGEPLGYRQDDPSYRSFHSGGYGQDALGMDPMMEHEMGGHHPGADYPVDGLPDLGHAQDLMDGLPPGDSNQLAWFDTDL
The experiment in a line: cell-based or functional assay.
Turning to Ac-[αAllylPro]D[tBuAla][B5(22)]D[(Me2NPr)GA]AAFL[PyrS2][3Thi][Bta]Q-NH2 (staple 1-4, 4-11) [I-2234], the “NanoBRET Abs IC50” value was > 20 µM.
Ac-[αAllylPro]D[tBuAla][B5(3)]D[Phe(3-COOH)]QAFL[PyrS2″][2F3MeF][Phe(3-Cl)]A-NH2 (staple 1-4, 4-11) [I-2227]: the “NanoBRET Abs IC50” value amounted to 6.3 µM.

The target in the next assay is T2, B-cat-Halo (beta-catenin HaloTag fusion expressed in HEK293 cells) (UniProt P35222 1-781).
T2 sequence (looked up): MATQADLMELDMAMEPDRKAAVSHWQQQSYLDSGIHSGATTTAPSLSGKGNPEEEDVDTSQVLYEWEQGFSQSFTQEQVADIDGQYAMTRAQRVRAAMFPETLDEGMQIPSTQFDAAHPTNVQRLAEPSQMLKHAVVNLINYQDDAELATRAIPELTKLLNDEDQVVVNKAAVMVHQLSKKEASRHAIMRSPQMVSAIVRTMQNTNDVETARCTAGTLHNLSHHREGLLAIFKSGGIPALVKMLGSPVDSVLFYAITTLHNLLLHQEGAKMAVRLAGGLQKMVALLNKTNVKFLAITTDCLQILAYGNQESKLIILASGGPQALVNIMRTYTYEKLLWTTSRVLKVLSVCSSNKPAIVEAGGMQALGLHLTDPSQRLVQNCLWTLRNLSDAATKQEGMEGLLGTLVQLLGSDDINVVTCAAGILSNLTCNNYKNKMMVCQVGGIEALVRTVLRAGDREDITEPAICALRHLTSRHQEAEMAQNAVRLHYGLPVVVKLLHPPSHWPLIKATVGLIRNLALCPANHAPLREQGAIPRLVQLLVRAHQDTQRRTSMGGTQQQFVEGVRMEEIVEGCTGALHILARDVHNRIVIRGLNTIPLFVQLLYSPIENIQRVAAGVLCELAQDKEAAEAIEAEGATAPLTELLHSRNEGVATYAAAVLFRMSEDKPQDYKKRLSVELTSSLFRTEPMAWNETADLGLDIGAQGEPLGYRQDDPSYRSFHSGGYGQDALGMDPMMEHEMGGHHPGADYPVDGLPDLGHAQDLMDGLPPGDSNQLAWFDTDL
In words: cell-based or functional assay.
Consider Ac-[αAllylPro]D[tBuAla][B5(4)]NT[Ac5c]AFN[PyrS2″][3Thi][Bta]Q-NH2 (staple 1-4, 4-11) [I-2493], for which the “NanoBRET Abs IC50” value was > 20 µM.
Still for that read-out and setting: in the case of Ac-[αAllylPro]D[tBuAla][B5]NT[Aib]AFN[PyrS2][3Thi][Bta][Me2Asn]-NH2 (staple 1-4, 4-11) [I-2494] it was > 20 µM.
Still for that read-out and setting: in the case of Ac-[αAllylPro]D[tBuAla][B5(4)]D[Phe(3-COOH)]QAFL[PyrS2″][Phe(2-CF3)][7FBztA]A-NH2 (staple 1-4, 4-11) [I-2489] it was 7.4 µM.
As for Ac-[αAllylPro]D[tBuAla][B5]NT[Aib]AFN[PyrS2][3Thi][Bta][MeAsn]-NH2 (staple 1-4, 4-11) [I-2495], the “NanoBRET Abs IC50” value was > 20 µM.
As to Ac-[αAllylPro]D[tBuAla][B5(4)]D[Phe(3-COOH)]QAFL[PyrS2″][Phe(2-CF3)][4ClBztA]A-NH2 (staple 1-4, 4-11; reading uncertain) [I-2491], the “NanoBRET Abs IC50” value was 6.1 µM.
Same read-out and setting: in the case of Ac-[αAllylPro]D[tBuAla][B5(4)]D[Phe(3-COOH)]AAFL[PyrS2″][Phe(2-CF3)][7ClBztA]Q-NH2 (staple 1-4, 4-11) [I-2486] it was 3.7 µM.
On the same count and under the same terms, in the case of Ac-[αAllylPro]D[tBuAla][B5(4)]D[Phe(3-COOH)]AAFL[PyrS2″][Phe(2-CF3)][7FBztA]Q-NH2 (staple 1-4, 4-11) [I-2488] it was 3.6 µM; in that of Ac-[αAllylPro]D[tBuAla][B5(4)]NT[Ac3c]AFN[PyrS2″][3Thi][Bta]Q-NH2 (staple 1-4, 4-11) [I-2492], > 20 µM; in that of Ac-[αAllylPro]D[tBuAla][B5(4)]D[Phe(3-COOH)]QAFL[PyrS2″][Phe(2-CF3)][7ClBztA]A-NH2 (staple 1-4, 4-11) [I-2487], 4.2 µM.
The same measure, in the same setting: next, Ac-[αAllylPro]D[tBuAla][B5(4)]D[Phe(3-COOH)]AAFL[PyrS2″][Phe(2-CF3)][4ClBztA]Q-NH2 (staple 1-4, 4-11; reading uncertain) [I-2490]: 6.4 µM.

The target in a further assay is T3, full-length beta-Catenin (Uniprot ID P35222) (Homo sapiens (Human), UniProt P35222 1-781).
T3 construct: the AlphaScreen used a Histidine (Nickel Chelate) detection kit, so a His tag is likely but not described; also called B-Catenin; bCat
T3 sequence: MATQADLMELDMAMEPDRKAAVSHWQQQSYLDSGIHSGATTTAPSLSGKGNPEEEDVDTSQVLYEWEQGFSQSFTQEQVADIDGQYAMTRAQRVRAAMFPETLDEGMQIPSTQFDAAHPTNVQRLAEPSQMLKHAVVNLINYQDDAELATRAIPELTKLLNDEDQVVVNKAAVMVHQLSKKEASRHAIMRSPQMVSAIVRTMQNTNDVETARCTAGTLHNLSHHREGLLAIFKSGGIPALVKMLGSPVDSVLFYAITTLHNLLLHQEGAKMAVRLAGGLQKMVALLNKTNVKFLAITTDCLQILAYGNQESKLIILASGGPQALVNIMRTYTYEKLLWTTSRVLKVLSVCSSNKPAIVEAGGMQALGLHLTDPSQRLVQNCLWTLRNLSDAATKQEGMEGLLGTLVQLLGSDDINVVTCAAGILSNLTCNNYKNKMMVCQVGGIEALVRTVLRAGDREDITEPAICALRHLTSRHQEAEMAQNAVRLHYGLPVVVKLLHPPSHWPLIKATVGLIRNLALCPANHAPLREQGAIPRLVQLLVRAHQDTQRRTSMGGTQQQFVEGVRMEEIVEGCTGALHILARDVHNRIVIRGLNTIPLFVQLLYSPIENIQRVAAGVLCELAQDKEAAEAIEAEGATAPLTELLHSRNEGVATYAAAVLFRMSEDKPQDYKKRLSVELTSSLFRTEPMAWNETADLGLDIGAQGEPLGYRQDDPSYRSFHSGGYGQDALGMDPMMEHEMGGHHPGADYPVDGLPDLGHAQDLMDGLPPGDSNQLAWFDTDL
The experiment in a line: FP competition vs 5FAM-TCF4(10-53) probe on full-length beta-catenin. As to the method: The plate was incubated protected from light for 60 minutes at 20° C. prior to read. Reads were performed on a CLARIOstar plate reader (BMG Labtech) in duplicate, and data were fitted to a 1:1 binding model with hill slope using an in-house script. All provided concentrations are final concentrations.
With B1, the EC50 (in general, the concentration giving half of the maximal effect) was determined as 3.12 µM.
Same read-out and setting: in the case of B2 it was 1.31 µM; in that of B3, 5 µM.

A further assay has as its target T3, full-length beta-Catenin (Uniprot ID …). The experiment in a line: AlphaScreen competition vs biotin-TCF4(10-53) on full-length beta-catenin. The essentials:
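Titrated peptide was preincubated 15 minutes at 20° C, then donor and acceptor beads were added for 60 minutes at 20° C protected from light. Reads were done in duplicate, and data were fitted to a 1:1 binding model with Hill slope; concentrations are final.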
For orientation: Bead proximity is the source of the signal in Alpha formats.
B1 showed an EC50 of 0.181 µM.
The same measure, in the same setting: next, B2: 0.053 µM; B3: 0.443 µM.

For the origin of these results see patent US20240116985A1 (published 2024).
